In patent publication US9540424B2, “Serum albumin binding molecules” (BRISTOL-MYERS SQUIBB COMPANY, priority 2010, dated 2017):
Blank lines part the entries; values can stand above or below the molecule they belong to.

Assays:
MuSA = MuSA (Mus musculus, UniProt P07724); test: SPR (Biacore T100) kinetics of FGF21-SABA1 fusions: MuSA; assay type: binding, murine; parameters: purchased Sigma A3559; settings: flow rate 30 μl/min, up to 1 uM analyte
Experimental: (§1) The binding competency and thermodynamic characterization of FGF21-SABA fusion variants to human serum albumin were performed using Isothermal Titration calorimetry on a Microcal VP-ITC instrument (Microcal Inc. Amherst Mass., USA). […] The detailed experimental conditions are described below.
(§2) For the calorimetry assay, the FGF21-SABA variant SABA1-FGF21v1 (SEQ ID NO: 132) was used. […] For the SPR studies, SABA1-FGF21v1 and SABA1-FGF21v3 (SEQ ID NO: 134) were examined.
(§3) Serum albumins were dissolved in PBS buffer (10 mM sodium phosphate, 130 mM sodium chloride, pH 7.1) to a concentration of 10 mg/ml, and subsequently diluted to 8-10 μg/ml in 10 mM sodium acetate pH 5.0 for immobilization. Serum albumins were immobilized on a Series S CMS sensor chip using standard ethyl(dimethylaminopropyl) carbodiimide (EDC)/N-hydroxysuccinimide (NHS) chemistry in HBS-EP+ running buffer at 25° C., following general manufacturer guidelines. Flow cell 1 was activated with EDC/NHS and blocked with ethanolamine. […] Kinetic experiments were performed in PBS buffer containing 0.05% tween-20 (running buffer) at either 25° C. or 37° C. […] These samples were injected across flow cells 1-4 for 300 s, with a 420 s dissociation time, at flow rates of 30 μl/min or 60 μl/min to check for mass transfer limitation. All surfaces were regenerated with 2 pulses of 10 mM glycine pH 2.0 at 30 μl/min for 30 s. Raw sensograms were “double-referenced” by subtracting flow cell 1 data from flow cell 2, 3 or 4 data, and then subtracting a separate buffer cycle from each sensogram. The double-referenced sensogram data was fitted to a 1:1 Langmuir model using Biacore T100 Evaluation software version 2.0.2 to determine the association rate constant (ka), the dissociation rate constant (kd), and the equilibrium dissociation constant (KD).

CySA = target: T1, CySA (Macaca fascicularis, UniProt A2V9Z4); test: SPR (Biacore T100) kinetics of FGF21-SABA1 fusions: CySA; assay type: binding, cynomolgous monkey; settings: flow rate 30 μl/min
T1 construct: purchased Equitech-Bio CMSA
Experimental: as §1, §2, §3

HSA = HSA (Homo sapiens, UniProt P02768); test: Isothermal Titration calorimetry of SABA1-FGF21 fusion with HSA; assay type: binding; settings: 37° C., PBS buffer
Experimental: as §1, §2
SABA-FGF21 fusion protein plus buffer was placed in the instrument sample cell at a concentration range of 0.4 to 1.0 mg/mL protein. The matching buffer was placed in the reference cell. Concentrations were determined using extinction coefficients calculated from the protein sequences of the pure proteins. The instrument reaction cell was equilibrated at 37° C. […] Data sets obtained were baseline-subtracted and corrected for the heat of dilution of the HSA injected into the cell. The resultant thermogram data was fitted using Origin™ evaluation software package (Microcal Inc.) version 2.0.2 to estimate the stochiometry, enthalpy, and equilibrium disassociation constant (KD) of the protein-protein binding reaction.

3T3-L1 adipocytes = test: pERK assay in 3T3-L1 adipocytes; assay type: cell-based, mouse
Experimental: 3T3-L1 cells (ATCC # CL-173) are mouse fibroblasts that can be differentiated into mouse adipocytes. Since β-klotho is expressed only in differentiated 3T3-L1 cells, it was necessary to first differentiate them before performing a β-klotho pERK 1/2 assay as described in Example B3.
The cells were grown in DMEM media (Invitrogen #12430-054) supplemented with 10% characterized fetal bovine serum (Hyclone # SH30071.03) and 1X Antibiotic-Antimycotic (Gibco #15240-096). Cells were cultured in a 37° C. incubator with 5% CO2. The sub-culturing procedure was followed as described in ATCC's product information sheet with the exception that TrypLE Express (Gibco #12605) was used instead of the Trypsin-EDTA solution.
Approximately 68 hours before differentiation, 5500 cells per well (in 150 μl media) were seeded into 96 well plates (Falcon #353072); cell numbers could be adjusted according to the time of the seeding and their doubling time, but cells were 100% confluent at the time the differentiation procedure was started. […]
At the ninth to tenth day of differentiation, the growth media was aspirated off the cells and cells were starved with 200 μl of DMEM (Invitrogen #12320-032) with 2% fetal bovine serum overnight. […] The plate was finally read on a PerkinElmer Envision 2103 Multilabel Reader, using standard Alpha Screening settings.

T1 sequence (A2V9Z4 25-608): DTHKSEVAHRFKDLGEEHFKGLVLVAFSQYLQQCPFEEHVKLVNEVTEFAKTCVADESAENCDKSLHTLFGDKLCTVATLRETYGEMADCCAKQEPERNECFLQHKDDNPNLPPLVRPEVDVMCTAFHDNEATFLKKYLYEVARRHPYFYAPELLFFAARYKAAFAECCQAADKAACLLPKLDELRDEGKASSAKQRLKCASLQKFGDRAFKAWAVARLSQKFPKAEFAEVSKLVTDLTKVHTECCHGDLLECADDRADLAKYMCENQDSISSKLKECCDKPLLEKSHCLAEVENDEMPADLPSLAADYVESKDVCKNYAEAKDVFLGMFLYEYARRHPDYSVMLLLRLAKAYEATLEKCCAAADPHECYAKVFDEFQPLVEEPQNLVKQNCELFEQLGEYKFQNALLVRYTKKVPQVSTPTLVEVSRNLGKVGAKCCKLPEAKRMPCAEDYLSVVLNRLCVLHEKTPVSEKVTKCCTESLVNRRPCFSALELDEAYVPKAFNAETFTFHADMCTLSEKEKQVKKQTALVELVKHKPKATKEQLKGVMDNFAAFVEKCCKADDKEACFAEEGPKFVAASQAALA
MuSA, sequence (P07724 25-608): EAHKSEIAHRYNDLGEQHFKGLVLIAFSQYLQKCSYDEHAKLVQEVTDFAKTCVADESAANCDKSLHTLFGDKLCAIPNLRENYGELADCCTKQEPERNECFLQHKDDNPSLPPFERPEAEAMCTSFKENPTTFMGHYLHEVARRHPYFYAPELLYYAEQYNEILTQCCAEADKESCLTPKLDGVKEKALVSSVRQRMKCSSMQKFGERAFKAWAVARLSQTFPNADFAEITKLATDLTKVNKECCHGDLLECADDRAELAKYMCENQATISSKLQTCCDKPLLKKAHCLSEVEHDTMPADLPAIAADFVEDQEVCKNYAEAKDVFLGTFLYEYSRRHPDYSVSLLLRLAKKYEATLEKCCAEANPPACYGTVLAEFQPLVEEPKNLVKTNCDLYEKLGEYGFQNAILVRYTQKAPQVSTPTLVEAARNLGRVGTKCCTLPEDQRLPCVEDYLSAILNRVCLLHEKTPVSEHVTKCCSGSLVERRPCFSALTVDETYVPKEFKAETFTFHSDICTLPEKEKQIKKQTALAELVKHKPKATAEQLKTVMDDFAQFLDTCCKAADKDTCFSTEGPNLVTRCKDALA

binding to MuSA (MuSA; 25° C.): no binding observed up
binding to MuSA (MuSA; 37° C.): no binding observed up
ka (CySA; 25° C.): 3930 M⁻¹ s⁻¹
kd (CySA; 25° C.): 0.0047 s⁻¹
ka (CySA; 37° C.): 4440 M⁻¹ s⁻¹
kd (CySA; 37° C.): 0.0123 s⁻¹
N (stoichiometry) by isothermal titration calorimetry (HSA): 0.87
B1: SABA1-FGF21v1: SABA1-FGF21 fusion, SEQ ID NO: 132; 293 aa; DNA SEQ ID NO: 184 (protein)
chain: MGVSDVPRDLEVVAATPTSLLISWHSYYEQNSYYRITYGETGGNSPVQEFTVPYSQTTATISGLKPGVDYTITVYAVYGSKYYYPISINYRTEIEKPSQGSGSGSGSGSGSGSPIPDSSPLLQFGGQVRQRYLYTDDAQQTEAHLEIREDGTVGGAADQSPESLLQLKALKPGVIQILGVKTSRFLCQRPDGALYGSLHFDPEACSFRELLLEDGYNVYQSEAHGLPLHLPGNKSPHRDPAPRGPARFLPLPGLPPALPEPPGILAPQPPDVGSSDPLSMVGPSQGRSPSYAS

B2: His-tagged FGF21: non-fused His-tagged FGF21 (“FGFv1”; SEQ ID NO: 125) used as a comparator (protein)
chain: MHHHHHHPIPDSSPLLQFGGQVRQRYLYTDDAQQTEAHLEIREDGTVGGAADQSPESLLQLKALKPGVIQILGVKTSRFLCQRPDGALYGSLHFDPEACSFRELLLEDGYNVYQSEAHGLPLHLPGNKSPHRDPAPRGPARFLPLPGLPPALPEPPGILAPQPPDVGSSDPLSMVGPSQGRSPSYAS
modifications: His6 tag
EC50 (3T3-L1 adipocytes): 4 ± 2 nM
Fold Activation (3T3-L1 adipocytes): 2.1 ± 0.2
